The results in this text go back to patent US20230303994.

Positions count from the first letter of the chain named. In names and notes the source's numbering stands. A value given as a limit tells only on which side of the number the result lay.

B1: porcine trypsin variant S172A (SEQ ID NO: 2) (protein)
chain: IVGGYTCAANSIPYQVSLNSGSHFCGGSLINSQWVVSAAHCYKSRIQVRLGEHNIDVLEGNEQFINAAKIITHPNFNGNTLDNDIMLIKLSSPATLNSRVATVSLPRSCAAAGTECLISGWGNTKSSGSSYPSLLQCLKAPVLSDSSCKSSYPGQITGNMICVGFLEGGKDACQGDSGGPVVCNGQLQGIVSWGYGCAQKNKPGVYTKVCNYVNWIQQTIAAN
B2: trypsin variant SEQ ID NO: 25 (protein)
chain: B1 chain with F24R, K170A, W193S
B3: trypsin variant SEQ ID NO: 19 (protein)
chain: B1 chain with F24R, K125C, W193S
B4: trypsin variant SEQ ID NO: 24 (protein)
chain: B1 chain with F24R, K170Y, W193S
B5: trypsin variant SEQ ID NO: 18 (protein)
chain: B1 chain with F24R, K125S, W193S
B6: trypsin variant SEQ ID NO: 41 (protein)
chain: B1 chain with F24R, Y131H, W193S
B7: trypsin variant SEQ ID NO: 4 (protein)
chain: B1 chain with F24R, R99A, W193S
B8: trypsin variant SEQ ID NO: 14 (protein)
chain: B1 chain with F24R, R99H, W193S
B9: trypsin variant SEQ ID NO: 36 (protein)
chain: B1 chain with F24R, Y131M, W193S

insulin glargine, P01308, sequence (P01308 whole entry, looked up): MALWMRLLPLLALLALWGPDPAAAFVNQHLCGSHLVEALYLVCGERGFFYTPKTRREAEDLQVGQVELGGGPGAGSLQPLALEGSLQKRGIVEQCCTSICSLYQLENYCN

The first series concerns the target insulin glargine, P01308.
As for B1, the exopeptidase activity result is “the concentration of insulin glargine is decreased over time”.

The target in the next series is pre-pro-human insulin.
Take B1: the “Activity PPI cleavage” value is on record as “yes” and the Selectivity was 62.1%.

As for B2, the “Activity PPI cleavage” value was “yes” and the Selectivity is reported as >90%.

In the case of B3, the “Activity PPI cleavage” value is “yes” and the Selectivity was >90%.

On to B4, for which the “Activity PPI cleavage” value was “yes” and the Selectivity was >90%.

For B5, the “Activity PPI cleavage” value is recorded as “yes” and the Selectivity is >90%.

With B6, the “Activity PPI cleavage” value is “yes” and the Selectivity is recorded as >90%.

As for B7, the “Activity PPI cleavage” value is given as “yes” and the Selectivity is listed as >90%.

As for B8, the “Activity PPI cleavage” value is “yes” and the Selectivity is recorded as >90%.

With B9, the “Activity PPI cleavage” value was “yes” and the Selectivity is on record as >90%.

The next series has as its target pre-pro-insulin glargine.
B1 had a Purity Insulin Glargine of 53.6 area %, a Yield of 65%, a desArg of 19.1 area % and a desThr of 5.2 area %.

As for B2, the Purity Insulin Glargine was determined as 80.4 area %, the Yield is > 80%, the desArg is < 0.5 area % and the desThr is 2.8 area %.

As for B3, the Purity Insulin Glargine came to 81 area %, the Yield is > 80%, the desArg was < 0.5 area % and the desThr stood at 3.3 area %.

Take B4: the Purity Insulin Glargine was determined as 82.3 area %, the Yield was > 80%, the desArg was < 0.5 area % and the desThr turned out to be 2.8 area %.

Regarding B5, the Purity Insulin Glargine worked out at 82.6 area %, the Yield was > 80%, the desArg was < 0.5 area % and the desThr came out at 1.9 area %.

As to B6, the Purity Insulin Glargine is 82.8 area %, the Yield was > 90%, the desArg is < 0.5 area % and the desThr worked out at 1.9 area %.

Consider B7, for which the Purity Insulin Glargine amounted to 86.4 area %, the Yield was > 90%, the desArg was < 0.5 area % and the desThr was found to be 2.9 area %.

Consider B8, for which the Purity Insulin Glargine came to 84.5 area %, the Yield was > 90%, the desArg is < 0.5 area % and the desThr worked out at 2.4 area %.

Consider B9, for which the Purity Insulin Glargine was determined as 87.6 area %, the Yield was > 90%, the desArg was < 0.5 area % and the desThr came to 1.5 area %.
